Measured values as given in paper PMC3919598.

Molecular target: MUS81-EME1 complex (human) (UniProt Q96NY9)
Chain of UniProt Q96NY9 (Q96NY9 whole entry, chain 1 of 2): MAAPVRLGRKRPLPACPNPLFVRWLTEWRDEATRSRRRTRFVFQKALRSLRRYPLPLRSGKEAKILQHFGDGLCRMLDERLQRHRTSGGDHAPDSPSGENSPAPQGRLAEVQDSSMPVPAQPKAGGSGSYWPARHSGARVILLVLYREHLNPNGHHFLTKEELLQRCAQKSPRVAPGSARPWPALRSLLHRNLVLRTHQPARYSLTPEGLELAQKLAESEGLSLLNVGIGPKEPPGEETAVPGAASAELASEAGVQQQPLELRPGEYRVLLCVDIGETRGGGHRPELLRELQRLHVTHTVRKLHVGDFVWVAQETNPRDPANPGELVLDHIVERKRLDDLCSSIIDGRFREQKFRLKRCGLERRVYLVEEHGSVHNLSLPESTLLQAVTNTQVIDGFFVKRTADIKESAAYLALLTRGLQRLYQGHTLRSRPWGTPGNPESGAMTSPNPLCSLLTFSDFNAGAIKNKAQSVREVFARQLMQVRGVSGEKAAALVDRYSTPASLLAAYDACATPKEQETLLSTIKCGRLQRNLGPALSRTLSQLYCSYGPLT
Chain of UniProt Q96NY9 (Q96AY2 whole entry, chain 2 of 2, further chain): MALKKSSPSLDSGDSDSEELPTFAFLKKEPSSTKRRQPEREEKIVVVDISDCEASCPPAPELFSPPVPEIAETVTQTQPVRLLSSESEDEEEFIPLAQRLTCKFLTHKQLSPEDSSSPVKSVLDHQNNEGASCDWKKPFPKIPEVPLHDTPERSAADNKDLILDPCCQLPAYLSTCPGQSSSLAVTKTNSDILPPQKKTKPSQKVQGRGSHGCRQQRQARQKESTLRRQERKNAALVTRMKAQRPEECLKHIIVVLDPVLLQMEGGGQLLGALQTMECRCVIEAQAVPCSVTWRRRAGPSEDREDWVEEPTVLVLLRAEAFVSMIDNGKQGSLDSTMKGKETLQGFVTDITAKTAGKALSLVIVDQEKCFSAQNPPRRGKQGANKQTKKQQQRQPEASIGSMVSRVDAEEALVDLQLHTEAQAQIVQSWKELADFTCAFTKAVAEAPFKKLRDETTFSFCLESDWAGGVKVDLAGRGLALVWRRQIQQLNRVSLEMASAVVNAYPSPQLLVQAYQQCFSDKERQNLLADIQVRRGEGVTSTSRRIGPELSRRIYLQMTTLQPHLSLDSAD

B1: Fanconi anemia complementation group A protein (FANCA) (natural protein)
chain: MSDSWVPNSASGQDPGGRRRAWAELLAGRVKREKYNPERAQKLKESAVRLLRSHQDLNALLLEVEGPLCKKLSLSKVIDCDSSEAYANHSSSFIGSALQDQASRLGVPVGILSAGMVASSVGQICTAPAETSHPVLLTVEQRKKLSSLLEFAQYLLAHSMFSRLSFCQELWKIQSSLLLEAVWHLHVQGIVSLQELLESHPDMHAVGSWLFRNLCCLCEQMEASCQHADVARAMLSDFVQMFVLRGFQKNSDLRRTVEPEKMPQVTVDVLQRMLIFALDALAAGVQEESSTHKIVRCWFGVFSGHTLGSVISTDPLKRFFSHTLTQILTHSPVLKASDAVQMQREWSFARTHPLLTSLYRRLFVMLSAEELVGHLQEVLETQEVHWQRVLSFVSALVVCFPEAQQLLEDWVARLMAQAFESCQLDSMVTAFLVVRQAALEGPSAFLSYADWFKASFGSTRGYHGCSKKALVFLFTFLSELVPFESPRYLQVHILHPPLVPGKYRSLLTDYISLAKTRLADLKVSIENMGLYEDLSSAGDITEPHSQALQDVEKAIMVFEHTGNIPVTVMEASIFRRPYYVSHFLPALLTPRVLPKVPDSRVAFIESLKRADKIPPSLYSTYCQACSAAEEKPEDAALGVRAEPNSAEEPLGQLTAALGELRASMTDPSQRDVISAQVAVISERLRAVLGHNEDDSSVEISKIQLSINTPRLEPREHMAVDLLLTSFCQNLMAASSVAPPERQGPWAALFVRTMCGRVLPAVLTRLCQLLRHQGPSLSAPHVLGLAALAVHLGESRSALPEVDVGPPAPGAGLPVPALFDSLLTCRTRDSLFFCLKFCTAAISYSLCKFSSQSRDTLCSCLSPGLIKKFQFLMFRLFSEARQPLSEEDVASLSWRPLHLPSADWQRAALSLWTHRTFREVLKEEDVHLTYQDWLHLELEIQPEADALSDTERQDFHQWAIHEHFLPESSASGGCDGDLQAACTILVNALMDFHQSSRSYDHSENSDLVFGGRTGNEDIISRLQEMVADLELQQDLIVPLGHTPSQEHFLFEIFRRRLQALTSGWSVAASLQRQRELLMYKRILLRLPSSVLCGSSFQAEQPITARCEQFFHLVNSEMRNFCSHGGALTQDITAHFFRGLLNACLRSRDPSLMVDFILAKCQTKCPLILTSALVWWPSLEPVLLCRWRRHCQSPLPRELQKLQEGRQFASDFLSPEAASPAPNPDWLSAAALHFAIQQVREENIRKQLKKLDCEREELLVFLFFFSLMGLLSSHLTSNSTTDLPKAFHVCAAILECLEKRKISWLALFQLTESDLRLGRLLLRVAPDQHTRLLPFAFYSLLSYFHEDAAIREEAFLHVAVDMYLKLVQLFVAGDTSTVSPPAGRSLELKGQGNPVELITKARLFLLQLIPRCPKKSFSHVAELLADRGDCDPEVSAALQSRQQAAPDADLSQEPHLF
Q: For B1, which MUS81-EME1-mediated incision of psoralen ICL-damaged 3' ssDNA branch substrate (1.5 nM MUS81-EME1; FANCA 0-20 nM), fold stimulation is on record?
A: Its MUS81-EME1-mediated incision of psoralen ICL-damaged 3' ssDNA branch substrate (1.5 nM MUS81-EME1; FANCA 0-20 nM), fold stimulation is 14 fold.

Q: And the MUS81-EME1-mediated incision of undamaged DNA (1.5 nM MUS81-EME1; FANCA 0-20 nM): enhanced up to 5 nM FANCA (Phase I), inhibited from 10 to 20 nM and abrogated at 20 nM FANCA (Phase II)?
A: The MUS81-EME1-mediated incision of undamaged DNA (1.5 nM MUS81-EME1; FANCA 0-20 nM): enhanced up to 5 nM FANCA (Phase I), inhibited from 10 to 20 nM and abrogated at 20 nM FANCA (Phase II) was 3 fold.
